# Measurements published in article PMC6819324.
# Target: T1, AdpAlin (Streptomyces lincolnensis NRRL 2936) (UniProt A0A1B1M9Y0)
# T1 sequence: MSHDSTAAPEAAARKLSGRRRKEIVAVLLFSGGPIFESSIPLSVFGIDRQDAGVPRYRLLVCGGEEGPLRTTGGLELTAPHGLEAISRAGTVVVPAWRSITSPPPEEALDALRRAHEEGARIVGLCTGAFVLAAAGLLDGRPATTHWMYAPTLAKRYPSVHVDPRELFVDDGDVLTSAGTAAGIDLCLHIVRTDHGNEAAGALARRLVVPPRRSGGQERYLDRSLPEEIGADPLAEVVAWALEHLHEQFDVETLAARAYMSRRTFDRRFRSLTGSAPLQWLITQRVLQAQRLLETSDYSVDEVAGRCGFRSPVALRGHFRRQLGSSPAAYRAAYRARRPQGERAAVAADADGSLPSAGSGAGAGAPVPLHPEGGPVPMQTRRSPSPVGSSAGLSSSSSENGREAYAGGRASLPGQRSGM
# Assay: EMSA
# Conditions: EMSA: 20 mM Tris-HCl pH 7.5, 5% glycerol, 0.1% BSA; 2.5 nM 5'-biotin probe; AdpAlin 0-6.4 uM (12.8 uM for probe-neg); 200-fold unlabeled competitor; salt and …
row,Sequence,binding
1,AGCCAGTGACGATAAGCGAGACAAGCAATCGGCTTCACGCCCTGTCAAGCGGCAGCAGACGGCTTCCCGTAATTCCTGGAAGTTATCCGGGAGTCGGCGCGAACGGCCCTCGATATCCGGTGCATTACCTGGGAATAGGGAATAGGGAACCGGTAATCCGCGGTCGGGGCAAGCGTCTGGGTGCGTGGACTTATCGTCACTGGCT (double strand) [mlmbAp-A],no binding
2,AGCCAGTGACGATAAGGGCCACACGTCGTAGACATCTGCGATCTTGTCACCGTAGAGCTTCGCGAAATCATGGTCGGACATTGAATTCTCTTTCCTCACCAGGACGTTGGCCACTCGGCGAGCGGCCGCAGGGAGACGGTGGCATGGGACGCGAGGGACAGTCGACACGGCAGCCGGTACCGGCGGTGTTCTTCGACCGGGACGGCGCTTATCGTCACTGGCT (double strand) [lmbJp-A],binds
3,AGCCAGTGACGATAAGCTATAGGCTTCGCGGGCTTCGAACTCCGCAGCCGCCACGCCGACTTCGACGGTGCCGCCTACCGCCCGGACAGCCGCTACCACGTGTCCGTCTACGCCCGGGCGCACGGTGACTAGGGCGCGACGGCTCGCCGCCGCCGCGTTCCGGGCCTTATCGTCACTGGCT (double strand) [mlmbKp-B],no binding
4,AGCCAGTGACGATAAGCGGGGACACACAGGGGTGGGCGGCACGGTGGGGGAAATACACCGGTCGGCTGACCGGTTTCCGCGCACGCGCCCGACTCTTTTCAGCCAACTTCCGACCACCGGGCATCCTTGTGTCCAACCACCCCCCAACCCCCGTTTGACCTGCACGGAAAGGGTCCCCACTTATCGTCACTGGCT (double strand) [adpAp-B-1],no binding
5,AGCCAGTGACGATAAGTCTACTGTGTCGCGTGATGCCGGAGTGACCAGTTCGTCATCCGGCAGATTGTCGACTTGGCAACTTGGCGTGAAGCATTCGATCACGAAGCGTTGCACTCGTGGGGCGTGCAGGGAAGTGCGCCTTGTCGCAGTGGCCAATCCACGTAGGGTGCGCTTATCGTCACTGGCT (double strand) [adpAp-A],binds
6,AGCCAGTGACGATAAGCGAGACAAGCAATCGGCTTCACGCCCTGTCAAGCGGCAGCAGACGGCTTCCCGTAATTCCTGGAAGTTATCCGGGAGTCGGCGCGAACGTGCCGCCACGGCCCTCGATATCCGGTGCATTACCTGGGAATAGGGAATAGGGAACCGGTAATCCGCGGTCGGGGCAAGCGTCTGGGTGCGTGGACTTATCGTCACTGGCT (double strand) [lmbAp-A],binds
7,AGCCAGTGACGATAAGGCGTTTACCTAGAACAAATCCGGGGCAAGCTCGCTCAGCTGTCGCCATGGGCGCCCTGACGCCACTGCGGCCCACGGATCGCCCCGTCAGCAAACTGGCCGAATGCCAACGGCATACGGCCAGTTCCTGACGCGGGCCACGGGGTTCACTCCGCGGACCACGCGTGCGGCGGCCGCCTCACTTATCCCGATGAGGCCACGCGTCGTCCGCCTCCGCGATCTCCTCCAGGGTTCCGTCCTTATCGTCACTGGCT (double strand) [lmbUp-C],binds
8,AGCCAGTGACGATAAGCGTGTCTGCATTCCACCATCCGGGCAGGCCATGGGCTCCGCATCGAGGTTCCCGAGCCTATCGGGACGCCTCCCCCCAACAGGGGTCGGGTGGCCCGATGTTGTCTTATTTTATTGAGTTCTGAGGGAGCCTTATCGTCACTGGCT (double strand) [bldAp-A],binds
9,AGCCAGTGACGATAAGTCGGACGAGGACGACGACAACCCCGCGGACGACCCGACAGGACTCGGCGAACGCCGCGTCTGCATCGGCACCGGCCCGCCCTCCGGATGCAGCGGAACCGGCGCACCGGCACCCGCCCCCGATCCGGCGGACGGCAAGGACCCGTCAGCGTCCTTATCGTCACTGGCT (double strand) [probe-neg],no binding
10,AGCCAGTGACGATAAGTGATCCGTACTTGATACATTGGCCGTTACATGTATCGGAGTTCCGAGGGGGGGCAATGATGCTGGTTCCGCCAAGCCATTCATGAGCTGCTCGCCTGCGCCGCCCTTCGTGGCGGTGGCGCGACATCGATGAGCGTGGTGGGCGCCGAACAACGGGGGTGAATCGCTGCTTCTTATCGTCACTGGCT (double strand) [lmbUp-A],binds
11,AGCCAGTGACGATAAGGGCCACACGTCGTAGACATCTGCGATCTTGTCACCGTAGAGCTTCGCGAAATCATGGTCGGACATTGAATTCTCTTTCCTCACCAGGCTCGGCGAGCGGCCGCAGGGAGACGGTGGCATGGGACGCGAGGGACAGTCGACACGGCAGCCGGTACCGGCGGTGTTCTTCGACCGGGACGGCGCTTATCGTCACTGGCT (double strand) [mlmbJp-A],no binding
12,AGCCAGTGACGATAAGGGTTCCCGTGGTGCTCCTCTGGTACGGCACCTCGCTCGCCGGCGCCGCCGGCACCGCGCTCGGACTGGCCGCCGTCACCGCCGTCTGCCGTATCCTCCTGCGCCAGTCGGAGCGCGGTGCGGCACGGCTACTGGCCGAAGAACGGGCCCCCCATCGCGGCCACCGCCACCGGGCCGGAACGGGGACACACAGGGGTGGGCGCTTATCGTCACTGGCT (double strand) [adpAp-B-2],binds
13,AGCCAGTGACGATAAGCGACCACCTGGGTCTCGCCCTGACCGTAGATCTTCGACAGATCCGTGGCACGCGCCGCCACTGCGGTGGTCCGGCCGACGATGGGTGTGGTGGTCACGAGAGGGCACTCCTGGGAACGACGACTGGGGGAATACCTCCATCGTCGCCGCCGCGGAGCGCCGTGTAGTCAGCCGCTGTTCCCTTATCGTCACTGGCT (double strand) [bldAp-N],no binding
14,AGCCAGTGACGATAAGGGCGTAGACGGACACGTGGTAGCGGCTGTCCGGGCGGTAGGCGGCACCGTCGAAGTCGGCGTGGCGGCTGCGGAGTTCGAAGCCCGCGAAGCGGGCCATCAGGTCCAGCTCCGTGGGGTGCTTATCGTCACTGGCT (double strand) [lmbKp-B],binds
